The supplement of paper PMC5998384

Tests used:
HeLa Kyoto [1] = assay: solubility change mitosis vs G1/S (difference of NP-40 vs SDS log2 ratios) (log2 ratio difference); higher = more soluble in mitosis
HeLa Kyoto [2] = assay: thermal stability score vs G1/S (z-score of summed log2 fold changes over temperatures); higher = more thermally stable than in G1/S
HeLa Kyoto [3] = assay: melting temperature (median over replicates), in situ; higher = more thermally stable
HeLa Kyoto [4] = assay: solubility in G1/S (NP-40 vs SDS abundance) (log2 ratio); higher = more soluble; conditions: cell cycle stage: G1/S
[5] = cell cycle stage: early G1 (4.5 h after nocodazole release)
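Throughout, for melting temperature (median over replicates), in situ: HeLa Kyoto cells synchronized by double thymidine or nocodazole block, proteins quantified by TMT10plex mass spectrometry, three independent biological replicates.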
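Throughout, for solubility change mitosis vs G1/S (difference of NP-40 vs SDS log2 ratios): synchronized HeLa Kyoto cells (double thymidine block for G1/S, nocodazole release for mitosis), protein amounts in NP-40 versus SDS lysates quantified by mass spectrometry, three biological replicates.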
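Throughout, for solubility in G1/S (NP-40 vs SDS abundance): HeLa Kyoto cells arrested at G1/S by double thymidine block, proteins quantified by TMT10plex mass spectrometry in mild NP-40 versus SDS extracts, three biological replicates.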
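Throughout, for thermal stability score vs G1/S (z-score of summed log2 fold changes over temperatures): synchronized HeLa Kyoto cells, proteins quantified by TMT10plex mass spectrometry, three biological replicates, mitosis taken 0.5 h after nocodazole release, G1/S directly after double thymidine block.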

| Sequence | solubility change mitosis (log2) (HeLa Kyoto [1]) | thermal stability score (HeLa Kyoto [2]; [5]) | thermal stability score (HeLa Kyoto [2]; cell cycle stage: mitosis) | melting temperature (HeLa Kyoto [3]; cell cycle stage: G1/S) [°C] | melting temperature (HeLa Kyoto [3]; cell cycle stage: mitosis) [°C] | solubility in G1/S (log2) (HeLa Kyoto [4]) |
| --- | --- | --- | --- | --- | --- | --- |
| MLGLLVALLALGLAVFALLDVWYLVRLPCAVLRARLLQPRVRDLLAEQRFPGRVLPSDLDLLLHMNNARYLREADFARVAHLTRCGVLGALRELRAHTVLAASCARHRRSLRLLEPFEVRTRLLGWDDRAFYLEARFVSLRDGFVCALLRFRQHLLGTSPERVVQHLCQRRVEPPELPADLQHWISYNEASSQLLRMESGLSDVTKDQ [THEM6] | -0.052 | -1.92 | -2.82 | 55.3 | 53.8 | -0.64 |
| MTTSGALFPSLVPGSRGASNKYLVEFRAGKMSLKGTTVTPDKRKGLVYIQQTDDSLIHFCWKDRTSGNVEDDLIIFPDDCEFKRVPQCPSGRVYVLKFKAGSKRLFFWMQEPKTDQDEEHCRKVNEYLNNPPMPGALGASGSSGHELSALGGEGGLQSLLGNMSHSQLMQLIGPAGLGGLGGLGALTGPGLASLLGSSGPPGSSSSSSSRSQSAAVTPSSTTSSTRATPAPSAPAAASATSPSPAPSSGNGASTAASPTQPIQLSDLQSILATMNVPAGPAGGQQVDLASVLTPEIMAPILANADVQERLLPYLPSGESLPQTADEIQNTLTSPQFQQALGMFSAALASGQLGPLMCQFGLPAEAVEAANKGDVEAFAKAMQNNAKPEQKEGDTKDKKDEEEDMSLD [ADRM1] | -0.24 | 0.363 | -2.12 | 51.3 | 51.1 | 0.469 |
| MAAAGVVSGKIIYEQEGVYIHSSCGKTNDQDGLISGILRVLEKDAEVIVDWRPLDDALDSSSILYARKDSSSVVEWTQAPKERGHRGSEHLNSYEAEWDMVNTVSFKRKPHTNGDAPSHRNGKSKWSFLFSLTDLKSIKQNKEGMGWSYLVFCLKDDVVLPALHFHQGDSKLLIESLEKYVVLCESPQDKRTLLVNCQNKSLSQSFENLLDEPAYGLIQAGLLDRRKLLWAIHHWKKIKKDPYTATMIGFSKVTNYIFDSLRGSDPSTHQRPPSEMADFLSDAIPGLKINQQEEPGFEVITRIDLGERPVVQRREPVSLEEWTKNIDSEGRILNVDNMKQMIFRGGLSHALRKQAWKFLLGYFPWDSTKEERTQLQKQKTDEYFRMKLQWKSISQEQEKRNSRLRDYRSLIEKDVNRTDRTNKFYEGQDNPGLILLHDILMTYCMYDFDLGYVQGMSDLLSPLLYVMENEVDAFWCFASYMDQMHQNFEEQMQGMKTQLIQLSTLLRLLDSGFCSYLESQDSGYLYFCFRWLLIRFKREFSFLDILRLWEVMWTELPCTNFHLLLCCAILESEKQQIMEKHYGFNEILKHINELSMKIDVEDILCKAEAISLQMVKCKELPQAVCEILGLQGSEVTTPDSDVGEDENVVMTPCPTSAFQSNALPTLSASGARNDSPTQIPVSSDVCRLTPA [TBC1D15] | -0.17 | -0.47 | 0.539 | 49.7 | 50.2 | -0.164 |
| MVVFGYEAGTKPRDSGVVPVGTEEAPKVFKMAASMHGQPSPSLEDAKLRRPMVIEIIEKNFDYLRKEMTQNIYQMATFGTTAGFSGIFSNFLFRRCFKVKHDALKTYASLATLPFLSTVVTDKLFVIDALYSDNISKENCVFRSSLIGIVCGVFYPSSLAFTKNGRLATKYHTVPLPPKGRVLIHWMTLCQTQMKLMAIPLVFQIMFGILNGLYHYAVFEETLEKTIHEE [TMEM126B] | 0.00498 | 0.469 | -1.3 | 55.9 | 53.5 | -0.0998 |
| MEGGLADGEPDRTSLLGDSKDVLGPSTVVANSDESQLLTPGKMSQRQGKEAYPTPTKDLHQPSLSPASPHSQGFERGKEDISQNKDESSLSMSKSKSESKLYNGSEKDSSTSSKLTKKESLKVQKKNYREEKKRATKELLSTITDPSVIVMADWLKIRGTLKSWTKLWCVLKPGVLLIYKTQKNGQWVGTVLLNACEIIERPSKKDGFCFKLFHPLEQSIWAVKGPKGEAVGSITQPLPSSYLIIRATSESDGRCWMDALELALKCSSLLKRTMIREGKEHDLSVSSDSTHVTFYGLLRANNLHSGDNFQLNDSEIERQHFKDQDMYSDKSDKENDQEHDESDNEVMGKSEESDTDTSERQDDSYIEPEPVEPLKETTYTEQSHEELGEAGEASQTETVSEENKSLIWTLLKQVRPGMDLSKVVLPTFILEPRSFLDKLSDYYYHADFLSEAALEENPYFRLKKVVKWYLSGFYKKPKGLKKPYNPILGETFRCLWIHPRTNSKTFYIAEQVSHHPPISAFYVSNRKDGFCLSGSILAKSKFYGNSLSAILEGEARLTFLNRGEDYVMTMPYAHCKGILYGTMTLELGGTVNITCQKTGYSAILEFKLKPFLGSSDCVNQISGKLKLGKEVLATLEGHWDSEVFITDKKTDNSEVFWNPTPDIKQWRLIRHTVKFEEQGDFESEKLWQRVTRAINAKDQTEATQEKYVLEEAQRQAARDRKTKNEEWSCKLFELDPLTGEWHYKFADTRPWDPLNDMIQFEKDGVIQTKVKHRTPMVSVPKMKHKPTRQQKKVAKGYSSPEPDIQDSSGSEAQSVKPSTRRKKGIELGDIQSSIESIKQTQEEIKRNIMALRNHLVSSTPATDYFLQQKDYFIIFLLILLQVIINFMFK [OSBPL8] | -0.172 | 0.167 | 0.896 | 49.8 | 50.9 | -0.118 |
| MTTSHMNGHVTEESDSEVKNVDLASPEEHQKHREMAVDCPGDLGTRMMPIRRSAQLERIRQQQEDMRRRREEEGKKQELDLNSSMRLKKLAQIPPKTGIDNPMFDTEEGIVLESPHYAVKILEIEDLFSSLKHIQHTLVDSQSQEDISLLLQLVQNKDFQNAFKIHNAITVHMNKASPPFPLISNAQDLAQEVQTVLKPVHHKEGQELTALLNTPHIQALLLAHDKVAEQEMQLEPITDERVYESIGQYGGETVKIVRIEKARDIPLGATVRNEMDSVIISRIVKGGAAEKSGLLHEGDEVLEINGIEIRGKDVNEVFDLLSDMHGTLTFVLIPSQQIKPPPAKETVIHVKAHFDYDPSDDPYVPCRELGLSFQKGDILHVISQEDPNWWQAYREGDEDNQPLAGLVPGKSFQQQREAMKQTIEEDKEPEKSGKLWCAKKNKKKRKKVLYNANKNDDYDNEEILTYEEMSLYHQPANRKRPIILIGPQNCGQNELRQRLMNKEKDRFASAVPHTTRSRRDQEVAGRDYHFVSRQAFEADIAAGKFIEHGEFEKNLYGTSIDSVRQVINSGKICLLSLRTQSLKTLRNSDLKPYIIFIAPPSQERLRALLAKEGKNPKPEELREIIEKTREMEQNNGHYFDTAIVNSDLDKAYQELLRLINKLDTEPQWVPSTWLR [MPP5] | 0.00906 | 0.62 | 2.56 | 48 | 50.7 | 0.0594 |
| MTPPPPPPPPPGPDPAADPAADPCPWPGSLVVLFGATAGALGRDLGSDETDLILLVWQVVEPRSRQVGTLHKSLVRAEAAALSTQCREASGLSADSLARAEPLDKVLQQFSQLVNGDVALLGGGPYMLCTDGQQLLRQVLHPEASRKNLVLPDMFFSFYDLRREFHMQHPSTCPARDLTVATMAQGLGLETDATEDDFGVWEVKTMVAVILHLLKEPSSQLFSKPEVIKQKYETGPCSDSTVPCPYSSKADVVDSETVVRARGLPWQSSDQDVARFFKGLNVARGGVALCLNAQGRRNGEALIRFVDSEQRDLALQRHKHHMGVRYIEVYKATGEEFVKIAGGTSLEVARFLSREDQVILRLRGLPFSAGPTDVLGFLGPECPVTGGTEGLLFVRHPDGRPTGDAFALFACEELAQAALRRHKGMLGKRYIELFRSTAAEVQQVLNRYASGPLLPTLTAPLLPIPFPLAPGTGRDCVRLRGLPYTATIEDILSFLGEAAADIRPHGVHMVLNQQGRPSGDAFIQMTSAERALAAAQRCHKKVMKERYVEVVPCSTEEMSRVLMGGTLGRSGMSPPPCKLPCLSPPTYTTFQATPTLIPTETAALYPSSALLPAARVPAAPTPVAYYPGPATQLYLNYTAYYPSPPVSPTTVGYLTTPTAALASAPTSVLSQSGALVRMQGVPYTAGMKDLLSVFQAYQLPADDYTSLMPVGDPPRTVLQAPKEWVCL [ESRP2] | 0.0705 | 1.55 | 2.39 | 45.2 | 47.7 | 0.0652 |
